Test results taken from patent US20250027068.

B1: PRT-542 (protein)
chain: MANQEIRYSKNENPNVTIKWVHGIGEPTQAEKEKIEFWWYETTTTKFFNNRKVDHLGDGNQCWAKTDSNMLHWWFVQNEENINQYIEKKNITGKINFNGEQMFDVKEGIDDNQEPEKSYIANTFRTKKAHNLSTKHKGDYIINGLSWYLYGLNNFKNAHGPTPVKKKPKFYGPALFKDVFNRGDGNTPIIVETDFKEYTKKEFEDTLSAALDSKKAVGINIYGSNVDYQHAITLWGAAFDEEENIIAIYVVDNNFKFENRIFPYGIWYQKEGRPYLFNYEINSFVKNRYVGEITTLDKGEAQWQETNLEHHHHHH
B2: PRT-580 (protein)
chain: MANQEIRYSEETPKTITSVWTKGVTPPTDFIKNEDVFHAPYVANQGWYDITKTFNGKDDLLCGAATAGNMLHWWFDQNKEEIERYLKKHPEKQKINFNGEQMFDVKEAIDTKDSQTNSKLFEYFKDKAFPYLSTKHLGVFPDHVIDMFINGYRLSLTNHGPTPVKRGTKDPRGGIFDAVFTRGDQSKLLTSRHDFKEKTLKEISDLIKQELQEGKALGLSHTYANVRINHVINLWGADFDSEGNLEAIYVTDSDSNASIGMKKYYVGVNSAGKVAISAKEIEDDNIGAQVLGLFTLSTGKDIWEQTNLEHHHHHH
B3: PRT-574 (protein)
chain: MANQEIRYSEETPKTITSVWTKGVTPPTDFIYNEDVLHAPYIANQGWYDITKTFNGKDDLLCGAATAGNMLHWWFDQNKEQIERYLKKHPEKQKINFNGEQMFDVKEAIDTKDSQTNSKLFEYFKDKAFPYLSTKHLGVFPDHVIDMFINGYRLSLTNHGPTPVKEQTKDPRGGIFDAVFTRGDQSKLLTSRHDFKEKTLNEISDLIKQELTEGKALGLSHTYANVRINHVINLWGADFDAEGNLEAIYVTDSDSNASIGMKKYYVGVNSAGKVAISAKEIEGDNIGAQVLGLFTLSTGKDIWEQTNLEHHHHHH
B4: PRT-248 (protein)
chain: MVTSVWTKGVTPPTNFTYGEDVLHAPYVANQGWYDITKTFNGKDDLLCGAATAGNMLHWWFDQNKEQIENYLKKHPEKQKINFNGEQMFDVKEAIDTKDSQLDSKLFEYFKEKAFPNLSTKHLGVFPDHVIDMFINGYRLSLLNHGPTPVKRGSKDPRGGIFDAVFTRGDQSKLLTNRHDFKEKTLKEISDLIKQELTEGKALGISHTYANVRINHVINLWGADFDAEGNLEAIYVTDSDSNASIGMKKYFVGVNSSGKVAISAKEIEEDNIGAQVLGLFTLSTGQDIWNQTN
B5: PRT-256 (protein)
chain: MVTSVWTKGVTPPTNFTYGEDVLHAPYVANQGWYDITKLFNGKDDLLCGAATAGNMLHWWFDQNKEQIENYLKKHPEKQKINFNGEQMFDVKEAIDTKDSQLDSKLFEYFLEKAFPNLSTKHLGVFPDHVIDMFINGYRLSLLNHGPTPVKRGSKDPRGGIFDAVFTRGDQSKLLTNRHDFKEKTLKEISDLIKQELTEGKALGISHTYANVGINHVINLWGADFDAEGNLEAIAVTDSDSNASIGMKKYFVGVNSSGKVAISAKEIEEDNIGAQVLGLFTLSTGQDIWNQTN
B6: PRT-264 (protein)
chain: MVTSVWTKGVTPPTNFTYGEDVLHAPYVANQGWYDITKLFNGKDNLLCGAATAGNMLHWWFDQNKEQIENYLKKHPEKQKINFNGEQLFDVKEAIDTKDSQLDSKLFDYFKEKAFPYLSTKHLGVFPDHVIDMFINGYRLSLTNHGPTPVKRGSKDKRGGIFDAVFTRGVQSKLLTNRHDFKEKTLKEISDLIKQELTEGKALGISHTYANVRINHVINLWGADFDAEGNLEAIYVTDSDTNPSIGMKKYFVGVNSSGKVAISAKEIEEDNIGAQVLGLFTLSTGQDIWNQTN
B7: PRT-581 (protein)
chain: MANQEIRYSKATPKTITSVWTKGVTPPENFIYNEDVLHAPYLANQGWYDITKTFNGKDDLLCGAATAGNMLHWWFDQNKEQIERYLKEHPEKQKINFNGEQMFDVKEAIDTKDSQTNSKLFEYFKDKAFPYLSTKHLGVFPDHVIDMFINGYRLSLTNHGPTPVKEQTKDPRGGIFDAVFTRGDQSKLLTSRHDFKEKTLNEISDLIKQELTEGKALGLSHTYANVRINHVINLWGADFDAEGNLEAIYVTDSDSNASIGMKKYYVGVNSAGKVAISAKEIEGDNIGAQVLGLFTLSTGKDIWEQTNLEHHHHHH
B8: PRT-599 (protein)
chain: MANQEIRYSEETPSTITSVWTKGVTPPTDFIQNEDVLHAPYIANQGWYDITKTFNGKDDLLCGAATAGNMLHWWFDQNKEQIENYLKKHPEKQKINFNGEQMFDVKEAIDTKDSQTDSALFEYFKDKAFPYLSTKHLGVFPDHVIDMFINGYRLSLTNHGPTPVKRGTKDPRGGIFDAVFTRGDQSKLLTSRHDFKEKTLNEISDLIKQELTEGKALGLSHTYANVRINHVINLWGADFNAEGNLEAIYVTDSDSNASIGMKKYYVGVNSAGKVAISAKEIKGDNIGAQVLGLFTLSTGQDIWNQTNLEHHHHHH
B9: PRT-561 (protein)
chain: MANQEIRYSEETPSTITSVWTKGVTPPTQFIYNEDVFHAPYIANQGWYDITKTFNGKDDLLCGAATAGNMLHWWFDQNKEQIENYLKKHPEKQKINFNGEQMFDVKEAIDTKDSQTDSKLFNYFKDKAFPYLSTKHLGVFPDHVIDMFINGYRLSLTNHGPTPVKRQTKDPRGGIFDAVFTRGDQSKLLTSRHDFKEKTLNEISDLIKQELTEGKALGLSHTYANVRINHVINLWGADFDAEGNLEAIYVTDSDSNASIGMKKYYVGVNSAGKVAISAKEIEGDNIGAQVLGLFTLSTGQDIWQQTNLEHHHHHH
B10: PRT-271 (protein)
chain: MVTSVWTKGVTPPTDFIYGEDVLHAPYKAGQGWYDITKLFNGKDDLLCGAATAGNMLHWWFDQNKEQIENYLKKHPEKQKINFNGEQMFDVKEAIDTKDSQLDSKLFDYFKEKAFPYLSTKHLGVFPDHVIDMFINGYRLSLTNHGPTPVKRGSKDPRGGIFDAVFTRGDQSKLLTNRHDLKNKTLKEISDLIKQELTEGKALGISHTYANVRINHVINLWGADFDAEGNLEAIYVTDSDSNPSIGMKKYFVGVNSSGKVAISAKEIEEDNIGAQVLGLFTLSTGQDIWNQTN
B11: PRT-272 (protein)
chain: MVTSVWTKGVTPPTDFIYGEDVLHAPYKAGQGWYDITKLFNGKDDLLCGAATAGNMLHWWFDQNKEQIENYLKKHPEKQKINFNGEQMFDVKEAIDTKDSQLDSKLFEYFLEKAFPYLSTKHLGVFPDHVIDMFINGYRLSLTNHGPTPVKRGSKDPRGGIFDAVFTRGDQSKLLTNRHDLKNKTLKEISDLIKQELTEGKALGISHTYANVRINHVINLWGADFDAEGNLEAIAVTDSDSNASIGMKKYFVGVNSSGKVAISAKEIEEDNIGAQVLGLFTLSTGQDIWNQTN
B12: PRT-528 (protein)
chain: MANQEIRYSEETPKTITSVWTKGVTPPTDFIQNEDVLHAPYIANQGWYDITKTFNGKDDLLCGAATAGNMLHWWFDQNKEEIENYLKKHPEKQKINFNGEQMFDVKEAIDTKDSQTDSALFEYFKDKAFPNLSTKHLGVMPDLVLDMFINGYYLSLGKHGPTPVKRGTKDPRGGIFDAVFTRGDQSKLLTARHDFKEKTLNEISDLIKQELTEGKALALSHTYANVRINHVINLWGADFNSEGNLEAIYVTDSDSNASIGMKKYYVGVNAAGKVAISAKEIEGDNIGAQVLGLFTLSTGQDIWEQTNLEHHHHHH
B13: PRT-527 (protein)
chain: MANQEIRYSEETPKTITSVWTKGVTPPTDFIKNEDVLHAPYIANQGWYDITKTFNGKDDLLCGAATAGNMLHWWFDQNKEEIENYLKKHPEKQKINFNGEQMFDVKEAIDTKDSQTDSALFEYFKDKAFPNLSTKHLGVMPDLVLDMFINGYYLSLGKHGPTPVKRGTKDPRGGIFDAVFTRGDQSKLLTSRHDFKEKTLNEISDLIKQELTEGKALALSHTYANVRINHVINLWGADFNSEGNLEAIYVTDSDSNASIGMKKYYVGVNSAGKVAISAKEIEGDNIGAQVLGLFTLSTGQDIWEQTNLEHHHHHH
B14: PRT-588 (protein)
chain: MRNQTTTYSEVTPSHITSVWTKGVTPPEQFIQGEDVFHAPYIANQGWYDITKTFNGKDDLLCGAATAGNMLHWWFDQNKEQIENYLKKHPEKQKIMFNNEEMFDLREAINTKDSQTDSALFSYFKDKAFPNLSARRLGVMPDHVLDMFINGYYLNVGNTDKTDVNRGTKDLRGGIFDAVFTRGDQSKLLTARHDLKNKTLKEISDLIKQELTEGKALALSHTYANVRINHVINLWGADFDAEGNLEAIYVTDSDSNASIGMKKYYVGVNSAGKVAISAKKIEGDNIGAQVLGLFTLSTGQDIWQQTNLEHHHHHH

Molecular target: pooled human IgG (human IgG1, 2, 3 and 4)

| Protein | Enzyme Activity Endpoint Assay: Fab′2 | Enzyme Activity Endpoint Assay: Fc | Enzyme Activity Endpoint Assay: IgG | Enzyme Activity Endpoint Assay: scIgG |
| --- | --- | --- | --- | --- |
| B1 | 0 ng/µL | 0 ng/µL | 1470 ng/µL | 0 ng/µL |
| B2 | 566 ng/µL | 282 ng/µL | 0 ng/µL | 0 ng/µL |
| B3 | 660 ng/µL | 357 ng/µL | 0 ng/µL | 227 ng/µL |
| B4 | 654 ng/µL | 370 ng/µL | 0 ng/µL | 0 ng/µL |
| B5 | 610 ng/µL | 376 ng/µL | 55 ng/µL | 0 ng/µL |
| B6 | 606 ng/µL | 353 ng/µL | 97 ng/µL | 0 ng/µL |
| B7 | 660 ng/µL | 365 ng/µL | 0 ng/µL | 0 ng/µL |
| B8 | 930 ng/µL | 310 ng/µL | 0 ng/µL | 0 ng/µL |
| B9 | 606 ng/µL | 405 ng/µL | 0 ng/µL | 0 ng/µL |
| B10 | 563 ng/µL | 322 ng/µL | 0 ng/µL | 0 ng/µL |
| B11 | 721 ng/µL | 389 ng/µL | 0 ng/µL | 0 ng/µL |
| B12 | 14 ng/µL | 114 ng/µL | 354 ng/µL | 691 ng/µL |
| B13 | 0 ng/µL | 142 ng/µL | 707 ng/µL | 396 ng/µL |
| B14 | 658 ng/µL | 361 ng/µL | 0 ng/µL | 0 ng/µL |
